From patent publication EP4631959A2, “NOVEL MINIGASTRIN-DERIVED CHOLECYSTOKININ 2 RECEPTOR BINDING MOLECULES FOR IMAGING AND TARGETED RADIOTHERAPY” (priority 2022, dated 2024)
Where two headings read alike, the source gives them in different places. Starred links: 1 amine or outer side, 2 acyl side, 3 side chain; linkers in the order of their positions; H or OH if unused. Non-standard residues stand in square brackets, D forms with d. Residues, ends and D or L forms follow the SMILES beside them. *: point of attachment. X1 = CC(C)(C)[Si](F)(c1ccc(C[N+](C)(C)CC(=O)*)cc1)C(C)(C)C; DOTA = O=C(O)CN1CCN(CC(=O)O)CCN(CC(=O)*)CCN(CC(=O)O)CC1; d(γGlu) = O=C(O)[C@@H](CCC(=O)[*:2])N[*:1]; 1Nal = N[C@@H](Cc1cccc2ccccc12)C(=O)O; PEG5 = NCCOCCOCCOCCOCCOCCC(=O)O; NMeNle = CCCC[C@H](NC)C(=O)O; PEG4 = NCCOCCOCCOCCOCCC(=O)O; dDap = NC[C@@H](N)C(=O)O

How the values were obtained:
[1] = biological target: T1, CCK-2R (Rattus norvegicus, UniProt P30553); assay: Determination of IC50: CCK-2R affinity on AR4-2J cells, competition with [^177Lu]Lu-DOTA-PP-F11N; assay type: binding; conditions: AR4-2J cells
T1 construct: The CCK-2R expressing rat pancreatic tumor cells AR4-2J; host or cells: AR4-2J rat pancreatic tumor cells
T1 sequence (P30553 1-452): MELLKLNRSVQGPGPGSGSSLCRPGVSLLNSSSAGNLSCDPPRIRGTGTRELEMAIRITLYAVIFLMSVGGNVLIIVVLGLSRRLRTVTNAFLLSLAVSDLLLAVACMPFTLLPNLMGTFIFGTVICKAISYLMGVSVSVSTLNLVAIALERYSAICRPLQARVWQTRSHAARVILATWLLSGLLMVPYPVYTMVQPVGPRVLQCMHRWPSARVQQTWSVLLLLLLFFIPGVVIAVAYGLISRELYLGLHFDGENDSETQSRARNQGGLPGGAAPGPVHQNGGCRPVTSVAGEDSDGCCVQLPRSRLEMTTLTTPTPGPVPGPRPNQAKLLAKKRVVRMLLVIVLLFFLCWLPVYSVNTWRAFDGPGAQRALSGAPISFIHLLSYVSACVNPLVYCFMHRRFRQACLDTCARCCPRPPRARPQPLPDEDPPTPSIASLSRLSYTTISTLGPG
In short: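 Competitive displacement of 0.3 pmol/well [177Lu]Lu-DOTA-PP-F11N by compounds (10^-10 to 10^-4 M) on AR4-2J cells in BSA-supplemented medium, 3 h at 37 °C. Free label was collected from medium plus PBS rinse, and cell-bound label was recovered with 1 M NaOH, both measured by γ-counter. Each IC50 was determined twice, in triplicate.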

[2] = n-Octanol-PBS distribution coefficient (logD7.4); assay type: physicochemical; conditions: for logD7.4 (n ≥ 5), ^67Ga-labeled: pH = 7.4, ^67Ga-labeled; for logD7.4 (n ≥ 5), ^177Lu-labeled: pH = 7.4, ^177Lu-labeled
Method: Approximately 1 MBq of the labeled tracer was dissolved in 1 mL of a 1/1 mixture (v/v) of phosphate buffered saline (PBS, pH = 7.4) and n-octanol in an Eppendorf tube (1.5 mL). After vigorous mixing of the suspension for 3 min at rt, the vial was centrifuged at 9,000 rpm for 5 min (Biofuge 15, Heraeus Sepatech, Osterode, Germany) and 200 µL aliquots of both layers were measured in a γ-counter. The experiment was repeated at least five times.

[3] = biological target: T2, Human serum albumin (HSA) (Homo sapiens, UniProt P02768); assay: Determination of HSA binding on a Chiralpak HSA column; assay type: in vitro ADME
T2 construct: purchased Daicel, Tokyo, Japan H13H-2433
Method: Human serum albumin (HSA) binding of the CCK-2R-targeted compounds was determined as reported by Valko et al., using a Chiralpak HSA column (50 x 3 mm, 5 µm, H13H-2433, Daicel, Tokyo, Japan) at a constant flow rate of 0.5 mL/min at rt. Therefore, an aq. solution of NH4OAc (pH = 6.9, 50 mM) as mobile phase A and isopropanol as mobile phase B were freshly prepared. In order to calibrate the column prior to the experiments, the retention times of nine reference substances with a HSA binding in the range of 13 to 99% were determined using a gradient of 100% A (0 to 3 min), followed by 80% A (3 to 40 min). Furthermore, all substances tested, were dissolved in a mixture (1/1, v/v) of A and B reaching a final concentration of 0.5 mg/mL. The HSA binding of all rhCCK ligands tested, was determined using the same gradient as for the calibration probes. The non-linear regression of the calibration experiments and the CCK-2R ligands (Fig. 29) was established using the OriginPro 2016G software (Northampton, United States).

[4] = Biodistribution in AR4-2J tumor-bearing CB17-SCID mice; assay type: in vivo; conditions: female, CB17-SCID, mouse, in vivo, iv, 100 pmol, total radioactivity
Method: (§1) All animal experiments were conducted in accordance with general animal welfare regulations in Germany (German animal protection act, in the edition of the announcement, dated May 18th, 2006, as amended by Article 280 of June 19th 2020, approval no. ROB-55.2-1-2532.Vet_02-18-109 by the General Administration of Upper Bavaria) and the institutional guidelines for the care and use of animals. CB17-SCID mice of both genders (Charles River Laboratories International Inc., Sulzfeld, Germany) were let to acclimate at the in-house animal facility at least for one week before inoculation was performed. To establish tumor xenografts, AR4-2J cells (5.0 × 10^6 cells per 200 µL) were suspended in a 1/1 mixture (v/v) of Dulbecco modified Eagle medium / Nutrition Mixture F-12 with Glutamax-I (1/1) and Cultrex® Basement Membrane Matrix Type 3 (Trevigen, Gaithersburg, MD, USA) and inoculated subcutaneously onto the right shoulder of 6-10 weeks old CB17-SCID mice (Charles River, Sulzfeld, Germany). Mice were used for experiments when tumors had grown to a volume of 150-300 mm^3 (1-2 weeks after inoculation). Exclusion criteria for animals from an experiment were either a weight loss higher than 20%, a tumor size above 1,500 mm^3, an ulceration of the tumor, a respiratory distress or a change of behavior. None of these criteria applied to any animal from the experiment. Neither randomization nor blinding was applied in the allocation of the experiments. Health status is SPF according to FELASA.
(§2) Approximately 1-5 MBq (100 pmol) of the radiolabeled minigastrin analogues were injected into the tail vein of AR4-2J tumor-bearing female CB17-SCID mice and sacrificed at 1 to 24 h post injection (n = 4-5). Selected organs were removed, weighted and measured in a γ-counter.

[5] = tested on: CCK-2R; assay: Competition studies in AR4-2J tumor-bearing CB17-SCID mice; assay type: in vivo; conditions: co-administration of excess unlabeled competitor (40 nmol), 24 h p.i.
Method: For competition studies, the radiolabeled compound (approx. 1-5 MBq, 100 pmol) was co-injected with [^natLu]Lu-DOTA-MGS5 (40 nmol) into the tail vein of AR4-2J tumor-bearing CB17-SCID mice and sacrificed at 1 to 24 h post injection (n = 2). Selected organs were removed, weighted and measured in a γ-counter.

[6] = tested on: AR4-2J tumor-bearing CB17-SCID mice; assay: Biodistribution in AR4-2J tumor-bearing CB17-SCID mice; assay type: in vivo; conditions: 24 h p.i.
Method: as §1, §2

[7] = ^natCu-labeled, read-out: IC50 [nM] (n = 3), ^natCu-labeled
[8] = ^natGa-labeled, read-out: IC50 [nM] (n = 3), ^natGa-labeled
[9] = ^natLu-labeled, read-out: IC50 [nM] (n = 3), ^natLu-labeled
[10] = Tab. 8, metal not stated (Fig. 18: ^natLu)

T2 sequence (P02768 25-609): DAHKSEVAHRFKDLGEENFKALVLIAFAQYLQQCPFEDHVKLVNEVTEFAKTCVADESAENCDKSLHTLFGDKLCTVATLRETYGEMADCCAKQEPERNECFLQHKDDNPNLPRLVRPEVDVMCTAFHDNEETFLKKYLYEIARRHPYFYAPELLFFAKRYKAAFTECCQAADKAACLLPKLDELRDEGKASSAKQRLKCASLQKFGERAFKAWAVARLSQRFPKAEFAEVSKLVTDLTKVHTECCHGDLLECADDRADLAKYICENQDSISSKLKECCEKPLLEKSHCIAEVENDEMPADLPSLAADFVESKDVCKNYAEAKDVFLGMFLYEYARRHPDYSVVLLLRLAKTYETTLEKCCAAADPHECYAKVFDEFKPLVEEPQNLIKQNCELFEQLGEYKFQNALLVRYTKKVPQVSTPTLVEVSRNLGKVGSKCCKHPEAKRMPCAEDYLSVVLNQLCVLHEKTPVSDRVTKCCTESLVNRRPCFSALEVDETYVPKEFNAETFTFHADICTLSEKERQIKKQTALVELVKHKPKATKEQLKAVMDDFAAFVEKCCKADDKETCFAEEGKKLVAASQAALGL

IC50 [1, 7] [nM]	IC50 [1, 8] [nM]	SMILES	IC50 [1, 9] [nM]	logD7.4 (n ≥ 5), ^177Lu-labeled [2]	HSA binding [%] [3] [%]	HSA binding [%], ^natCu-labeled [3] [%]	HSA binding [%], ^natGa-labeled [3] [%]	HSA binding [%], ^natLu-labeled [3] [%]	tissue to tissue ratio at 24 h [4]	tissue uptake at 24 h [4] [%ID/g]	activity levels in stomach and tumor in competition studies (CCK-2R specificity) [5]	HSA binding [%] [3, 10] [%]	other results
4.2 ± 0.5	5 ± 0.5	CCCC[C@@H](C(=O)N[C@@H](CC(=O)O)C(=O)N[C@@H](Cc1cccc2ccccc12)C(N)=O)N(C)C(=O)[C@H](Cc1c[nH]c2ccccc12)NC(=O)CCOCCOCCOCCOCCNC(=O)CC[C@@H](NC(=O)CN1CCN(CC(=O)O)CCN(CC(=O)O)CCN(CC(=O)O)CC1)C(=O)O [DOTA-CCK-66, DOTA-γ-glu-(PEG)3-Trp-(N-Me)Nle-Asp-1-Nal-NH2] ({DOTA-d(γGlu)-PEG4}-W[NMeNle]D[1Nal]-NH2)	5.1 ± 0.5	−2.60 ± 0.07	61.5	61.5	53.8	69.1	2010 ± 469	8.56 ± 1.08	significantly decreased activity levels in both stomach and tumor	–	logD7.4 (n ≥ 5), ^64Cu-labeled ([2]; pH = 7.4, ^64Cu-labeled): −2.64 ± 0.04; logD7.4 (n ≥ 5), ^67Ga-labeled [2]: −3.01 ± 0.07; logD7.4 (n ≥ 5), ^67Ga-labeled ([2]; listed as [^67Ga]Ga-DOTA-CCK-66): < -3
–	–	CCCC[C@H](NC(=O)[C@H](Cc1c[nH]c2ccccc12)NC(=O)CNC(=O)[C@H](Cc1ccc(O)cc1)NC(=O)[C@H](C)NC(=O)CC[C@@H](NC(=O)CC[C@@H](NC(=O)CC[C@@H](NC(=O)CC[C@@H](NC(=O)CC[C@@H](NC(=O)CC[C@@H](NC(=O)CC[C@@H](NC(=O)CC[C@@H](NC(=O)[C@@H](CNC(=O)c1ccc([Si](F)(C(C)(C)C)C(C)(C)C)cc1)NC(=O)CN1CCN(CC(=O)O)CCN(CC(=O)O)CCN(CC(=O)O)CC1)C(=O)O)C(=O)O)C(=O)O)C(=O)O)C(=O)O)C(=O)O)C(=O)O)C(=O)O)C(=O)N[C@@H](CC(=O)O)C(=O)N[C@@H](Cc1ccccc1)C(N)=O [DOTA-MG-SiFA-23, DOTA-dap(SiFA)-(γ-glu)8- Ala-Tyr-Gly-Trp-Nle-Asp-Phe-NH2]	4.71 ± 0.62	−2.69 ± 0.06	–	–	–	–	–	–	specific	–	tissue uptake at 24 h ([4]; 24 h p.i., read-out: activity levels in the tumor): > 25 %ID/g; activity levels in the tumor, fold higher than those of [^177Lu]Lu-DOTA-PP-F11N [6]: more than 8 fold
3.9 ± 1	3.6 ± 0.4	CCCC[C@@H](C(=O)N[C@@H](CC(=O)O)C(=O)N[C@@H](Cc1cccc2ccccc12)C(N)=O)N(C)C(=O)[C@H](Cc1c[nH]c2ccccc12)NC(=O)CNC(=O)[C@H](Cc1ccc(O)cc1)NC(=O)[C@H](C)NC(=O)[C@@H](CCC(=O)O)NC(=O)CN1CCN(CC(=O)O)CCN(CC(=O)O)CCN(CC(=O)O)CC1 [DOTA-MGS5, DOTA-glu^6-Ala^7-Tyr^8-Gly^9-Trp^10-(N-Me)Nle^11-Asp^12-1-Nal^13-NH2, reference compound]	–	–	87.6	87.6	82.0	91.9	1480 ± 329	11 ± 1.15	–	–	–
–	–	CCCC[C@@H](C(=O)N[C@@H](CC(=O)O)C(=O)N[C@@H](Cc1cccc2ccccc12)C(N)=O)N(C)C(=O)[C@H](Cc1c[nH]c2ccccc12)NC(=O)CCOCCOCCOCCOCCNC(=O)CC[C@@H](NC(=O)CCOCCOCCOCCOCCOCCNC(=O)[C@@H](CNC(=O)C[N+](C)(C)Cc1ccc([Si](F)(C(C)(C)C)C(C)(C)C)cc1)NC(=O)CN1CCN(CC(=O)O)CCN(CC(=O)O)CCN(CC(=O)O)CC1)C(=O)O [DOTA-rhCCK-90, DOTA-dap(SiFAlin)-(PEG)4-γ-glu-(PEG)3-Trp-(N-Me)Nle-Asp-1-Nal-NH2] ({DOTA}-[dDap](X1)[PEG5][d(γGlu)][PEG4]W[NMeNle]D[1Nal]-NH2)	9.85 ± 1	−0.76 ± 0.09	–	–	–	–	–	–	–	94.5	–
–	–	CCCC[C@@H](C(=O)N[C@@H](CC(=O)O)C(=O)N[C@@H](Cc1cccc2ccccc12)C(N)=O)N(C)C(=O)[C@H](Cc1c[nH]c2ccccc12)NC(=O)CCOCCOCCOCCOCCNC(=O)CC[C@@H](NC(=O)CCOCCOCCOCCOCCOCCNC(=O)CC[C@@H](NC(=O)[C@@H](CNC(=O)C[N+](C)(C)Cc1ccc([Si](F)(C(C)(C)C)C(C)(C)C)cc1)NC(=O)CN1CCN(CC(=O)O)CCN(CC(=O)O)CCN(CC(=O)O)CC1)C(=O)O)C(=O)O [DOTA-rhCCK-91, DOTA-dap(SiFAlin)-γ-glu-(PEG)4-γ-glu-(PEG)3-Trp-(N-Me)Nle-Asp-1-Nal-NH2]	8.56 ± 0.7	−1.66 ± 0.08	–	–	–	–	–	–	–	90.0	IC50 ([1]; read-out: IC50 [nM] (n = 3), ^natGa-labeled, ^natGa-labeled): 8.24 ± 1.6 nM
–	–	CCCC[C@H](NC(=O)[C@H](Cc1c[nH]c2ccccc12)NC(=O)CNC(=O)[C@H](Cc1ccc(O)cc1)NC(=O)[C@H](C)NC(=O)CC[C@@H](NC(=O)CC[C@@H](NC(=O)CC[C@@H](NC(=O)CC[C@@H](NC(=O)CC[C@@H](NC(=O)CC[C@@H](NC(=O)[C@@H](CNC(=O)c1ccc([Si](F)(C(C)(C)C)C(C)(C)C)cc1)NC(=O)CCC(C(=O)O)N1CCN(CC(=O)O)CCN(CC(=O)O)CCN(CC(=O)O)CC1)C(=O)O)C(=O)O)C(=O)O)C(=O)O)C(=O)O)C(=O)O)C(=O)N[C@@H](CC(=O)O)C(=O)N[C@@H](Cc1ccccc1)C(N)=O (stereo partly drawn) [DOTAGA-MG-SiFA-19, DOTAGA-dap(SiFA)-γ-F11N]	–	−2.54 ± 0.05	–	–	–	–	–	–	specific	–	–
